# Experimental data taken from the nanobody polyreactivity screen of Harvey et al. (2022).
# Experiment: yeast display, Sf9 membrane polyspecificity reagent, FACS + sequencing; frameworks hold sequencing errors
# Method in brief: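 Nanobodies came from a synthetic yeast display library in Saccharomyces cerevisiae BJ5465, induced with galactose for 36–48 hours and stained for 1 hour at 4 °C with 10% biotinylated, detergent-solubilized Sf9 membrane reagent. Cells were enriched on streptavidin microbeads and then FACS-sorted, with low and high (top ~1%) gates set on anti-HA fluorescence for expression and streptavidin fluorescence for reagent binding. Each polyreactivity label reflects the gate a clone came from. Genes were amplified by colony PCR, sequenced by MiSeq 2 × 250 and filtered by CDR length.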
row,Sequence,polyreactivity (PSR sort gate)
1,QVQLVESGGGLVQAGGSLRLSCAASGFKYAMGWYRQATGKERELVAAISSGGITSYADSVKGRFTISRDNAKNTVYLQMNSLKPEDTAVYYCNARLRHSQYAYYYWGQGTQVTVSS,high polyreactivity
2,QVQLVESGGGLVQAGGSLRLICAASGRIFDKNAMGWYRQAPGKERELVAAINRSGGRTYYADSVKGRFTISRDNAKNTVYLQMNSLKPEDTAVYYCAADTQGSRYDYWGQGTQVTVSS,high polyreactivity
3,QVQLVESGGGLVQAGGGLRLSCAASGSIFRSNTMGWYRQAPGKERELVAGISYSGGSTYADSVKGRFTISRDNAKNTVYLQMNSLKPEDTAVYYCARRVYSYDVLYFSYYYWGQGTQVTVSS,low polyreactivity
4,QVQLVESGGGLVQAGGSLRLSCAASGFTFRFYAMGWYRQAPGKERELVATISSRGGRTYYADSVKGRFTISRDNAKNTVYLQLNSLKPEDTAVYYCAADQKSQYQGNYWGQGTQVTVSS,high polyreactivity
5,QVQLVESGGGLDQAGGSLRLSCAASGNIFYGNAMGWSRQAPGKERELVAGITSGGSTNYADSVKGRFTISRDTAKNTVYLQMTSLKPEDTAVYYCNATSSGSIFGYEYWGQGTQVTVSS,low polyreactivity
6,QVQLVESGGGLVQAGGSLRLSCAASGFIFSSYAMGWYRQAPGKERELVAAISWSDSSTYYADSVKGRFTISRDNSKNTVYLQMTSLKPEDTAVYYCNVEVAESYDYWGQGTQVTVSS,low polyreactivity
7,QVQLVESGGGLVQAGGSLRLSCAASGFIFSSYAMGWYRQAPGKERELVAAITRNGGSTYYADSVKGRFTISRDNAKNTVYLQMNSLKPEDTAVYYCAAPRWRGVGRFDYWGQGTQVTVSS,high polyreactivity
8,QVQLVESGGGLVQAGGSLRLSCAASGFTFWAYAMGWYRQAPGKERELVAPISWSGGITYYADSVKGRFTISRDNAKNTVYLQMNSLKPEDTAVYYCAADPYVLVWVEDYDYWVQGTQVTVSS,high polyreactivity
9,QVQLGESGGGLVQAGGSLRLRCAASGSNFRTYVMGWYRQGPGKERELVAAISRRGGSTYYADSVKGRFTISRDNAKNTVYLPMNSLKPEDTAVYNCAAEDEYSLEYSTLDYWGQGTQVTVSS,high polyreactivity
10,QVQLVESGGGLVQAGGSLRLSCAASGITFPLYAMGWYRKAPGKERELVATISGRGGSTYYADYVKGRFTISRDNAKNTVYLQMNSLIPEDTAVYYCNADFRSPYFLLSWYHSGDYWGLGTQVTVSS,low polyreactivity
11,QVQLGESGGGLVQAGGSLRLSCAASGYIFAYYAMGWSRQAPGKERELVAAISRSGGSTYYADSVKGRFTISRDNAKNTVYLEMISLKPEDTAVSYCAARSTGNYEREYNYWGQGTQVTVSS,high polyreactivity
12,QVQLVESGGGLVQAGGSLRLSCAASGRIFRRNTMGWSRQAPGKERELVAAITSSGGSTYADSVKGRFTISRDNAKKTVYLQMNSLKPEDTAVYYCATYVAYHRGYRTYDHWGQGTQVTVSS,low polyreactivity
13,QVQLVESGGGLVQAGGSLRLSCAASGFTFFHYDMGWYRQAPGKERELVAAINTRGSRTYYADSVKGRFTISRDNAKNTVYLQMNSLKPEDTAGYYSAADSVQVYAGQYYYWGQGTQVTVSS,high polyreactivity
14,QVQLVESGGGLVQAGGSLRLSCAASGITFTFNAMGWYRQAPGKERELVAAITWSGGSTFYADSVKGRFTITRDNAKNTVYLQMNSLKPEDTAVYYCARDTELYVRWLDYWGQGTQVTVSS,low polyreactivity
15,QVQLVESGGGLVQAGGSLRLSSAASGRIFSDNVMGWYRQAPGKERELVATITSTGGTYYADSVKGRFTISRDNAKNTVYLQMNSLKPEDTAVYYCNKATLADWWLYPRYNYWGQGTQVTVSS,low polyreactivity
16,QVQLEESGGGLVQAGRSLRLSCAASGRTFIRNAMGRYRHAPGQQRELVAAISSRGGRTYYADSVKGRFTISRDNAKTTVSLEMNSLKPEDTAVYYCAADFTYKLDGYDYWGQGSQVTVSS,high polyreactivity
17,QVQLVESGGGLVQAGGSLRLSCAASGFIFEKYTMGWYRQAPGKERELVAAITWNGGSTYYADSVKGRFTISRDNAKNTVYLQMNSLKPEDTAVYYCAARVGWNKRRYDYWGQGTQVNVSS,low polyreactivity
